B1: CD2-associated protein, residues 271 to 331; numbered along this chain, Q9Y5K6 (parent)
chain: KEYCRTLFAYEGTNEDELTFKEGEIIHLISKETGEAGWWRGELNGKEGVFPDNFAVQINEL

Variants of: B1
Assay: abundance fitness (aPCA) (normalised: wild type 0, dead -1); higher = more abundant; growth selection in yeast, the domain comes from the species named
Conditions: Homo sapiens

Abundance fitness, by site and new letter:
F50: D -0.626 | I -0.822 | K -0.993 | L -0.668 | M -0.845 | N -0.809 | P -0.973 | Q -0.732 | R -0.614 | S -0.818 | T -0.705 | V -0.674 | W -0.792
P51: A -0.447 | C -0.923 | D -0.487 | E -0.573 | F -0.677 | G -0.893 | H -0.866 | I -0.49 | K 0.152 | L -0.377 | M 0.004 | N -0.582 | Q -0.137 | R -0.032 | S -0.56 | V -0.974 | W -0.533
D52: A 0.053 | C 0.009 | E 0.043 | F -0.142 | I 0.077 | K -0.02 | L -0.055 | M 0.077 | N 0.008 | P -0.081 | Q -0.02 | R -0.043 | S 0.039 | V -0.16 | W -0.186 | Y -0.085
N53: A -0.003 | C -0.138 | D -0.094 | E -0.036 | F -0.14 | H -0.032 | I -0.193 | K 0.133 | L -0.133 | M -0.198 | P -0.365 | Q -0.051 | R 0.038 | S 0.012 | T 0.027 | V -0.185 | W -0.355 | Y -0.084
F54: A 0.162 | C 0.084 | E -0.632 | G -0.32 | H -0.018 | I -0.191 | K 0.044 | L 0.037 | M -0.079 | N -0.625 | P -0.572 | Q -0.347 | R -0.004 | S 0.099 | T -0.088 | V 0.011 | W -0.296
A55: C -0.058 | D -0.671 | E -0.726 | F -0.492 | G -0.322 | H -1.01 | I -0.274 | K -0.92 | L -0.573 | M -0.886 | P -0.738 | R -1.07 | S -0.505 | T -0.149 | V 0.034 | W -0.623 | Y -0.919
V56: C -0.314 | E 0.003 | F -0.456 | G -0.173 | H -0.317 | I -0.327 | K -0.05 | L -0.264 | M -0.073 | N -0.339 | P -0.567 | Q -0.226 | R -0.161 | S -0.243 | T 0.033 | W -0.434 | Y -0.409
Q57: A -0.023 | C -0.139 | D -0.097 | E -0.016 | F -0.295 | H -0.051 | I -0.006 | K -0.188 | L -0.046 | N -0.077 | R -0.155 | S -0.182 | T -0.024 | V -0.058 | W -0.532 | Y -0.463
I58: A -0.151 | C -0.112 | D 0 | F -0.126 | H -0.234 | L -0.026 | N -0.378 | P -0.431 | Q -0.247 | R -0.417 | S -0.233 | T -0.136 | V 0.005 | W -0.213 | Y -0.249
N59: D -0.145 | E -0.05 | G -0.037 | H -0.1 | I -0.702 | K -0.274 | L -0.501 | M -0.426 | P -0.032 | Q -0.056 | S 0.009 | T -0.147 | V -0.349 | W -0.367 | Y -0.332
E60: A -0.05 | C -0.127 | D 0.172 | F -0.213 | G 0.013 | H 0.13

— the Human Domainome abundance scans (Beltran et al. 2025)
